Assay results taken from patent US7211424B1, “Mammalian Subtilisin/kexin isozyme SKI-1: a proprotein convertase with a unique cleavage specificity” (Institut de Recherches Cliniques de Montreal, priority 1999, dated 2007).

T1: BTMD-SKI-1 (Homo sapiens, UniProt Q14703)
T1 sequence (Q14703 187-997 limits assumed): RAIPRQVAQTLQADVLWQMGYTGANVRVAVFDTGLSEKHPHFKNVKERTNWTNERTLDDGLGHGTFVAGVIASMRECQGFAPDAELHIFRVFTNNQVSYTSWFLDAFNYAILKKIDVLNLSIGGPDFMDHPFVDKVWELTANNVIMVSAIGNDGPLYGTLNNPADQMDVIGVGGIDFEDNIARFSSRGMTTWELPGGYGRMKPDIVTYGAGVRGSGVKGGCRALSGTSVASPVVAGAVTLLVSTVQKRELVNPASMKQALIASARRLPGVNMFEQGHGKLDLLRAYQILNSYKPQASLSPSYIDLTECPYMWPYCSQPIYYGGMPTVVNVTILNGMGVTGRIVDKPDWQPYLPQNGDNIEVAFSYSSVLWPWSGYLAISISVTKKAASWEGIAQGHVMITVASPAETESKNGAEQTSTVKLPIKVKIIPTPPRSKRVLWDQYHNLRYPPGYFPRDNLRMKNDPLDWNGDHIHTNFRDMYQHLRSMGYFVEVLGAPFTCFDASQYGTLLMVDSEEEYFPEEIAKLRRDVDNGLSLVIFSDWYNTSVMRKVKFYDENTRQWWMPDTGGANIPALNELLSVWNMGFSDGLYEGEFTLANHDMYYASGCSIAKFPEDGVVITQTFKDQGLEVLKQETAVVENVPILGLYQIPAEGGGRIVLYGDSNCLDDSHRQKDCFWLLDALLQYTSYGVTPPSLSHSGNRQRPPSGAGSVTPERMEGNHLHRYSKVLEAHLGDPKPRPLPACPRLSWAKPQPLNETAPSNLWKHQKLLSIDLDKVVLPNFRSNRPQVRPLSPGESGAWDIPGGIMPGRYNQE
T1 sequence (Q14703 17-137 partner limits assumed): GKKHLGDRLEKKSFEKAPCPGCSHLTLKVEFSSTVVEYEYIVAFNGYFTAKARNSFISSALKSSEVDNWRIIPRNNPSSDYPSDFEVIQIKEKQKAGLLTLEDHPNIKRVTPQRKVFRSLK

T2: SKI-1 (Homo sapiens, UniProt Q14703)
T2 sequence (Q14703 187-998 limits assumed): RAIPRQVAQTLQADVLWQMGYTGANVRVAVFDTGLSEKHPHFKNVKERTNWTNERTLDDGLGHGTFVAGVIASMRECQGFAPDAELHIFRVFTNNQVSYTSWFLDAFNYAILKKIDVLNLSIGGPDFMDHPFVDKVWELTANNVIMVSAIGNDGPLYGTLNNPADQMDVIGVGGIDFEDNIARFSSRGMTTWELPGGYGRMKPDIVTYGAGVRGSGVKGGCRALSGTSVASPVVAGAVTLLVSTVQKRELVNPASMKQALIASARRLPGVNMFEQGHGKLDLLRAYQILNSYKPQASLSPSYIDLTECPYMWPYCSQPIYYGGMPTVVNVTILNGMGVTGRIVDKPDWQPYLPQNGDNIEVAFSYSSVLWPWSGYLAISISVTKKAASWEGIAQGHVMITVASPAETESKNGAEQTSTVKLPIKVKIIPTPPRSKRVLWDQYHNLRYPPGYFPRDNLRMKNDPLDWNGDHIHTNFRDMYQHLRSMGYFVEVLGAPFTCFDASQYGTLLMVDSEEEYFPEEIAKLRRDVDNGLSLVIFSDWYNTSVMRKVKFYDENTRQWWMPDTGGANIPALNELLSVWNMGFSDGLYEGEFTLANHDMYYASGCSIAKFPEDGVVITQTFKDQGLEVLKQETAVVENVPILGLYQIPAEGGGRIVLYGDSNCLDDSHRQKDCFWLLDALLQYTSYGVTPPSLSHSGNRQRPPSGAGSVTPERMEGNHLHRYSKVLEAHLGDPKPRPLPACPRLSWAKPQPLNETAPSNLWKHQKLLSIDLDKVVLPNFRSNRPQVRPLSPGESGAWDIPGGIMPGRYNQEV

T3: SKI-1 protease (Homo sapiens, UniProt Q14703)
T3 construct: endogenous in cells; the enzyme itself is not transfected
T3 sequence (Q14703 187-1052): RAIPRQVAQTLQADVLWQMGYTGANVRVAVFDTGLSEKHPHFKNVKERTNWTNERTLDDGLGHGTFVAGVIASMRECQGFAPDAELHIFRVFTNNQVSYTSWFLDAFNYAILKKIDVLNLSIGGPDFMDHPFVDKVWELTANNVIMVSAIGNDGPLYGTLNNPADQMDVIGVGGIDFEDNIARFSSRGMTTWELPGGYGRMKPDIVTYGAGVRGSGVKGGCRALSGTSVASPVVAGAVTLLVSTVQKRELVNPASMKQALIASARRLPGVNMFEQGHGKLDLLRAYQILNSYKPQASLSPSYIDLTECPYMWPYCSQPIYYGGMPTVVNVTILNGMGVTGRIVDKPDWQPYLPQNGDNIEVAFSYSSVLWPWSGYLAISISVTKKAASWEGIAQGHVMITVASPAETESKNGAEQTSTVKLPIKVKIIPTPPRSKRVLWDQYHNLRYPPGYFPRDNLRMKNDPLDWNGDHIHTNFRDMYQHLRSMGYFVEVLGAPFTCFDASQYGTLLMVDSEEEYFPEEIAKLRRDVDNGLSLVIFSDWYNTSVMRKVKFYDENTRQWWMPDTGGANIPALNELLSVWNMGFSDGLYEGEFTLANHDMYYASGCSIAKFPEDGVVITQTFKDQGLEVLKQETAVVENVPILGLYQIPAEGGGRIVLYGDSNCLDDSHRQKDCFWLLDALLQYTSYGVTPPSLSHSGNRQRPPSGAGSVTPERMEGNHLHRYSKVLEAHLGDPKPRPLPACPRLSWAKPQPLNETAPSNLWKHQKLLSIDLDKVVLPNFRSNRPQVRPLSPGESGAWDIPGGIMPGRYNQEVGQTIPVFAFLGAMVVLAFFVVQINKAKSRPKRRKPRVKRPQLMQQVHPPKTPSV

B1: ProSKI-1: the 188 amino acids that make up the signal peptide and the prosegment of SKI-1, expressed in HK293 cells (protein)
chain: GKKHLGDRLEKKSFEKAPCPGCSHLTLKVEFSSTVVEYEYIVAFNGYFTAKARNSFISSALKSSEVDNWRIIPRNNPSSDYPSDFEVIQIKEKQKAGLLTLEDHPNIKRVTPQRKVFRSLKYAESDPTVPCNETRWSQKWQSSRPLRRASLSLGSGFWHATGRHSSRRLLRA

What was measured:
[1] = target: T1, BTMD-SKI-1; assay: biochemical; format: biochemical
[2] = target: T4, shed-hSKI-1 (Homo sapiens, UniProt Q14703); assay: Hydrolysis of quenched fluorogenic substrates by shed-hSKI-1; format: biochemical; conditions: in the presence of 10 mM EDTA
T4 construct: SKI-1 is further processed to remove the transmembrane domain that keeps it integrated in the ER membrane, which generates a SKI-1 soluble form; made in house; host or cells: HK293 cells stably transfected with full-length hSKI-1 in pcDNA3; shed enzyme in the medium
Method: For digestions, each peptide was typically reacted at 37° C. with 10 μl of the concentrated enzyme preparation in a buffer consisting of 50 mM HEPES (N-2-Hydroxyethyl piperazine-N′-2 EthaneSulfonic acid) (ICN Biomedicals Inc), 50 mM MES (2-[N-Morpholino] EthaneSulfonic acid) (Sigma Chem Co.), and 3 mM Ca^2+-acetate (pH 6.5). The digestion products were separated by RP-HPLC on a Beckman 5 μm Ultrasphere C18 column (0.2×25 cm) and eluted with a 1%/min linear gradient of aqueous 0.1% TFA/CH3CN ([…]) at a flow rate of 1 ml/min. The collected peptides were characterized by mass spectrometry and amino acid composition, which was also used to quantitate the amount of various substrates and products. The digestions of the quenched fluorogenic peptides were analyzed by RP-HPLC using a dual UV (210 nm) and fluorescence (excitation and emission wavelengths of 320 and 420 nm, respectively) detector (Rainin).
Km(app), Vmax(app) and Ki(app) determinations—Following digestion reactions with increasing substrate concentrations, the products were separated by RP-HPLC. The rate of substrate hydrolysis was obtained from the integrated peak areas of the chromatograms. […] For the two quenched peptides, kinetic parameters were determined as described (17).

[3] = target: T2, SKI-1; format: biochemical; conditions: overnight 37° C., pH 6.0; PMSF 0.5 mM + pAPMSF 50 μM, o-phenanthroline 5 mM, EDTA 10 mM
[4] = target: furin (Homo sapiens, UniProt P09958); assay: Specificity of ProSKI-1: processing of neurotrophin-3 (NT-3), a substrate not processed by SKI-1; format: cell-based
[5] = target: T3, SKI-1 protease; assay: SREBP-1 processing in stable HK293 cell lines overexpressing ProSKI-1 and SREBP-1 (immunoblot); format: cell-based
Method: Cell Culture: HK293 cells were maintained as monolayers in Dulbecco's modified Eagle's medium containing 100 units/ml penicillin and 100 μg/ml streptomycin sulfate (medium A) supplemented with 10% fetal calf serum. 24 hours before RNA and protein extractions medium A was supplemented with 5% lipoprotein deficient serum, 50 μM mevalonate (Sigma), 50 μM compactin (Sigma) and with no sterols or 1 μg/ml of 25-hydroxy-cholesterol and 10 μg/ml of cholesterol. 4 hours before protein extraction 25 μg/ml N-acetyl-leucinyl—leucinyl norleucinal was added. Total RNA was isolated with Trizol (Gibco BRL) reagent according to the instructions of the manufacturer. In order to extract proteins cells were washed and collected in PBS with protease inhibitors ( ). After addition of buffer A (Triton×100 1%,50 mM tris maleate, 2 mM CaCl2, inhibitor coctail ( ), and ALLN) cells were mixed with pipette and allowed to swell on ice for 20 minutes Then the solution was centrifuged for 5 minutes at 15, 000 rpm and supernatants representing membrane proteins were collected and stored until analyzed at −70° C. […]
Transfections: HK293 cells were plated at a density of 5×10^5 /60 mm dish in medium A with 10% fetal calf serum and were cultured until they were 40–60% confluent. […] Colonies were isolated and formed stable cell lines were analyzed by immunoblotting with ProSKI-1 and SREBP-1 antibodies. […]

[6] = tested on: SREBP mediated transcription; assay: SREBP target gene mRNA in HK293 cells overexpressing ProSKI-1 and SREBP-1 (Northern blot); format: cell-based, human
Method: Cell Culture: […] Total RNA was isolated with Trizol (Gibco BRL) reagent according to the instructions of the manufacturer. In order to extract proteins cells were washed and collected in PBS with protease inhibitors ( ). […] Samples were shaken at 4 C for 1 hour and centrifuged and the supernatant was frozen in aliquots at -70° C. Transfections: […] On day two medium containing appropriate selection agents (800 μg/ml Geneticin for pcDNA3neo, […] Zeocin for pcDNA3zeo) were added. The medium was changed every two days until defined colonies were evident. Colonies were isolated and formed stable cell lines were analyzed by immunoblotting with ProSKI-1 and SREBP-1 antibodies. […] After transfer filters were crosslinked by UV irradiation in a Stratalinker (Stratagene). Filters were prehydridized at 42° C. for 1 hour and hybridized with random labeled ^32P cDNA probes for 16-20 hours. UltrahybTM buffer (Ambion) was used. After hybridization filters were washed and exposed to film for indicated time and bands were quantified by densitometry. Primer pairs were used to clone cDNA probes: HMG CoA reductase [[NT] ID NO: 21)] [[NT] ID NO: 22)], farnesyl diphosphate [[NT] ID NO: 23)], [[NT] ID NO: 24)], Fatty acid synthase [[NT] ID NO: 25)], [[NT] ID NO: 26)], Acetyl CoA carboxylase [[NT] ID NO: 27)], [5' [NT]3 (SEQ ID NO: 28)], SREBP-1 [[NT] ID NO: 29)], [[NT] ID NO: 30)]. […]

Chain of furin (P09958 108-794, species assumed): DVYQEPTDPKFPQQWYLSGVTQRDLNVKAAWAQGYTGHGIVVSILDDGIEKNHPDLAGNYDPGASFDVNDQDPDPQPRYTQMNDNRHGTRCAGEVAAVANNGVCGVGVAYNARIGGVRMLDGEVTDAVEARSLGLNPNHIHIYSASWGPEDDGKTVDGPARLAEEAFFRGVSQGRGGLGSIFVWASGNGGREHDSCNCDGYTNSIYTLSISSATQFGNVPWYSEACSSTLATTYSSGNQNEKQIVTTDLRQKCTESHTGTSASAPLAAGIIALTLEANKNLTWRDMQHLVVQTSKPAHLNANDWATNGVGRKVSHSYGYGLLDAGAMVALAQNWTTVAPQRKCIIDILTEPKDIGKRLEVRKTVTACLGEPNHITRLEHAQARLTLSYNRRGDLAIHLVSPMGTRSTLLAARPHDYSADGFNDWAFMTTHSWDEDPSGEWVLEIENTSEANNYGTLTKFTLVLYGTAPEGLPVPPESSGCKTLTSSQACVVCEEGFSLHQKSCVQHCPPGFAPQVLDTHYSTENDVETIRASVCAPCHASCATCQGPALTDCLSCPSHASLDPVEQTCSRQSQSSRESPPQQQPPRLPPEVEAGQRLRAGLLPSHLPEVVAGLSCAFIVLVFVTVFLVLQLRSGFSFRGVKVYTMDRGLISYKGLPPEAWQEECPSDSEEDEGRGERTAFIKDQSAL

| Molecule | Hydrolysis of SREBP-2 peptide (% of control) [1] | cleavage of quenched fluorogenic peptide at the RSLK↓ site [2] | inhibition of the processing of proBDNF by SKI-1 [3] | level and furin-derived processing of NT-3 [4] | processing of cytoplasmic proSREBP-1 into intermediate form(s) ([5]; HK293 cell lines overexpressing SREBP-1 together with ProSKI-1) | nuclear SREBP-1 ([5]; HK293 nuclear extracts, absence of sterols) | mRNA levels of LDL-receptor, HMG-CoA reductase, farnesyl diphosphate and fatty acid synthase ([6]; HK293 cells, with and without lipids, early passages of previously frozen cell lines) | target gene mRNA levels ([6]; same clones kept in culture for further passages) |
| --- | --- | --- | --- | --- | --- | --- | --- | --- |
| O=C(O)CN(CCN(CC(=O)O)CC(=O)O)CC(=O)O [EDTA] | 0 % of control | completely abolished | effectively inhibit | – | – | – | – | – |
| B1 | – | – | – | unaffected | formation of the intermediate form(s) of SREBP-1 was abolished | Only minute amounts of nuclear SREBPs were detected | greatly reduced | normal or even higher than in control cells |
